MFI data for two substances are collected here from patent publication EP4814000A1.

Assay [1] has as its target wild-type RSV B F (RSV B). The assay is described as follows: flow cytometry, Expi293F cells, Lipofectamine 2000-mRNA; row WT-RQ1. A general note: A flow cytometer gives signals particle by particle.
In assay [2] the target is wild-type RSV B F (RSV B). The assay is described as follows: flow cytometry, Expi293F cells, Lipofectamine 2000-mRNA; row WT-RQ3.
Assay [3] addresses 003m-P215S-1×GCN4t (RSV). Kind of assay: flow cytometry, Expi293F cells, Lipofectamine 2000-mRNA; row 003m-P215S-1×GCN4t.
Assay [4] deals with RSV B-003m-P215S-1×GCN4t-C486D-C489D (RSV B). The assay is described as follows: flow cytometry, Expi293F cells, Lipofectamine 2000-mRNA; mRNA RQ2.
For assay [5], the target named is RSV B-003m-P215S-1×GCN4t-ori_linker (RSV B). The assay is described as above.
Another assay deals with RSV B-003m-P215S (RSV B). The description is as above.
Assay [6] addresses RSV B-003m-P215S-1×GCN4t-F190S (RSV B). The assay is described as above.
Assay [7] has as its target RSV B-003m-P215S-1×GCN4t-C102A-C362S (RSV B). The assay is described as above.
In assay [8] the target is RSV B-003m-P215S-1×GCN4t-D92E (RSV B). The assay is described as above.
Assay [9] concerns the target RSV B-003m-P215S-1×GCN4t-G46S (RSV B). The assay is described as above.
The target of assay [10] is RSV B-003m-P215S-1×GCN4t (RSV B). The assay is described as above.
Assay [11] deals with RSV B-003m-P215S-1×GCN4t-C155S-C290S (RSV B). The assay is described as above.
Assay [12] concerns the target RSV B-003m-P215S-1×GCN4t-C486D-C489D (RSV B). The assay is described as follows: flow cytometry, Expi293F cells, Lipofectamine 2000-mRNA; mRNA RQ1.
Assay [13] deals with RSV B-003m-P215S-1×GCN4t-C102A-C362S (RSV B). The description is as above.
Assay [14] deals with RSV B-003m-P215S-1×GCN4t-G46S (RSV B). The assay is described as above.
The target of assay [15] is RSV B-003m-P215S-1×GCN4t (RSV B). The description is as above.
Assay [16] has as its target RSV B-003m-P215S-1×GCN4t-C155S-C290S (RSV B). The assay is described as above.
The target of assay [17] is 003m-P215S-1×GCN4t (RSV). The assay is described as follows: flow cytometry, Expi293F cells, Lipofectamine 2000-mRNA; row 003M-P215S-1×GCN4t (ORIG).
Assay [18] concerns the target wild-type RSV B F (RSV B). Kind of assay: flow cytometry, Expi293F cells, Lipofectamine 2000-mRNA; row WT-RQ2.

Take AM14-AF488 (antibody): the MFI in assay [1] was 201000; in [2], 55800; in the assay with 003m-P215S-1×GCN4t (RSV) [3] it was 30100; in [4], 8080; in [5], 286; in the assay with RSV B-003m-P215S (RSV B), 521000. In addition, the MFI worked out at 11300 in assay [6]; 3940 in assay [7]; 792 in [8]; 3670 in [9]; 5300 in assay [10]; 36300 in assay [11]. In addition, the MFI was determined as 8130 in assay [12]; 3640 in [13]; 4140 in assay [14]; 7340 in assay [15]; 48400 in [16]; 2560 with 003m-P215S-1×GCN4t (RSV) [17]. For the same substance, in [18], the MFI is 206000.
Regarding D25-AF488 (antibody), the MFI in assay [1] came to 132000; in [2], 36900; with 003m-P215S-1×GCN4t (RSV) [3], 54200; in [4] it was 8130; in [5], 556; with RSV B-003m-P215S (RSV B) it was 379000. The MFI in [6] was determined as 13100; in assay [7], 15700; in [8], 2480; in assay [9], 4110; in assay [10], 7110; in assay [11], 67300. Also, the MFI came to 8170 in [12]; 13900 in assay [13]; 4570 in assay [14]; 8770 in [15]; 94600 in assay [16]; 3840 with 003m-P215S-1×GCN4t (RSV) [17]. Also, the MFI in [18] stood at 138000.
